Patent US20230190944A1
Starred links: 1 amine or outer side, 2 acyl side, 3 side chain; linkers in the order of their positions; H or OH if unused. Non-standard residues stand in square brackets, D forms with d. Groups on a side chain read outwards from the residue. *: point of attachment. C20 diacid = O=C(O)CCCCCCCCCCCCCCCCCCC(=O)*; γGlu = O=C(O)[C@H](CCC(=O)[*:2])N[*:1]; AEEA = NCCOCCOCC(=O)O; Aib = CC(C)(N)C(=O)O

Legend:
[1] = target: Human CT receptor (calcitonin receptor) (human), P30988; test: cell-based or functional assay
[2] = target: Human AMY1 receptor (amylin receptor 1) (human), P30988; test: cell-based or functional assay
Chain of Human AMY1 receptor (amylin receptor 1) (human), P30988 (P30988 25-474, chain 1 of 2): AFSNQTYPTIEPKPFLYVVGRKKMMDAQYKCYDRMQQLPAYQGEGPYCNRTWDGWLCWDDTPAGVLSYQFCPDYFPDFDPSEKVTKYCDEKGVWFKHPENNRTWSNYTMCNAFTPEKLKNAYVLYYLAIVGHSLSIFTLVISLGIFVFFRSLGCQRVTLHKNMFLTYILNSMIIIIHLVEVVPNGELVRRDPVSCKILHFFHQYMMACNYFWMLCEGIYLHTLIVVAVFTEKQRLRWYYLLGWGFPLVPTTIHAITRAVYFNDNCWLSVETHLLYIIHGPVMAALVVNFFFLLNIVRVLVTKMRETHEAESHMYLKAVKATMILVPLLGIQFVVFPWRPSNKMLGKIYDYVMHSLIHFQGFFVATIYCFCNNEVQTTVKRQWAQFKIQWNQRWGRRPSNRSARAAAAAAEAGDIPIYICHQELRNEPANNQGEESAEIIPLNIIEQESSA
Chain of Human AMY1 receptor (amylin receptor 1) (human), P30988 (O60894 27-148, chain 2 of 2, further chain): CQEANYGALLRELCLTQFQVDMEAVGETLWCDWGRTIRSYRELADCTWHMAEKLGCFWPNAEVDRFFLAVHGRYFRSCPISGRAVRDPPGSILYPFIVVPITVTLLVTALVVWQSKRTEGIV

Chain of Human CT receptor (calcitonin receptor) (human), P30988 (P30988 25-474): as the sequence (P30988 25-474, chain 1 of 2) above

Row | hCT cAMP EC50 (pM) [1] [pM] | hAMY1 cAMP EC50 (pM) [2] [pM] | Binder
1 | 31.7 | 49.3 | Ac-ASHLSTAVLGKLS[Aib]ELHKLEDYPRTDVGAESP-NH2 (SMILES CC(=O)N[C@@H](C)C(=O)N[C@@H](CO)C(=O)N[C@@H](Cc1c[nH]cn1)C(=O)N[C@@H](CC(C)C)C(=O)N[C@@H](CO)C(=O)N[C@H](C(=O)N[C@@H](C)C(=O)N[C@H](C(=O)N[C@@H](CC(C)C)C(=O)NCC(=O)N[C@@H](CCCCN)C(=O)N[C@@H](CC(C)C)C(=O)N[C@@H](CO)C(=O)NC(C)(C)C(=O)N[C@@H](CCC(=O)O)C(=O)N[C@@H](CC(C)C)C(=O)N[C@@H](Cc1c[nH]cn1)C(=O)N[C@@H](CCCCN)C(=O)N[C@@H](CC(C)C)C(=O)N[C@@H](CCC(=O)O)C(=O)N[C@@H](CC(=O)O)C(=O)N[C@@H](Cc1ccc(O)cc1)C(=O)N1CCC[C@H]1C(=O)N[C@@H](CCCNC(=N)N)C(=O)N[C@H](C(=O)N[C@@H](CC(=O)O)C(=O)N[C@H](C(=O)NCC(=O)N[C@@H](C)C(=O)N[C@@H](CCC(=O)O)C(=O)N[C@@H](CO)C(=O)N1CCC[C@H]1C(N)=O)C(C)C)[C@@H](C)O)C(C)C)[C@@H](C)O) [Compound I]
2 | 40.9 | 49.4 | Ac-ASHLSTAVLGK([AEEA-AEEA-γGlu-C20 diacid])LS[Aib]ELHKLEDYPRTDVGAESP-NH2 (SMILES CC(=O)N[C@@H](C)C(=O)N[C@@H](CO)C(=O)N[C@@H](Cc1c[nH]cn1)C(=O)N[C@@H](CC(C)C)C(=O)N[C@@H](CO)C(=O)N[C@H](C(=O)N[C@@H](C)C(=O)N[C@H](C(=O)N[C@@H](CC(C)C)C(=O)NCC(=O)N[C@@H](CCCCNC(=O)COCCOCCNC(=O)COCCOCCNC(=O)CC[C@H](NC(=O)CCCCCCCCCCCCCCCCCCC(=O)O)C(=O)O)C(=O)N[C@@H](CC(C)C)C(=O)N[C@@H](CO)C(=O)NC(C)(C)C(=O)N[C@@H](CCC(=O)O)C(=O)N[C@@H](CC(C)C)C(=O)N[C@@H](Cc1c[nH]cn1)C(=O)N[C@@H](CCCCN)C(=O)N[C@@H](CC(C)C)C(=O)N[C@@H](CCC(=O)O)C(=O)N[C@@H](CC(=O)O)C(=O)N[C@@H](Cc1ccc(O)cc1)C(=O)N1CCC[C@H]1C(=O)N[C@@H](CCCNC(=N)N)C(=O)N[C@H](C(=O)N[C@@H](CC(=O)O)C(=O)N[C@H](C(=O)NCC(=O)N[C@@H](C)C(=O)N[C@@H](CCC(=O)O)C(=O)N[C@@H](CO)C(=O)N1CCC[C@H]1C(N)=O)C(C)C)[C@@H](C)O)C(C)C)[C@@H](C)O) [Compound II]
